Patent US20200317812A1 (AGENCY FOR SCIENCE TECHNOLOGY AND RESEARCH, published 2020)

Target: T1, AXL receptor tyrosine kinase (Homo sapiens, UniProt P30530 26-894, O-linked glycan (site not stated) reported as the TAG_TNB1 epitope)
T1 sequence (looked up): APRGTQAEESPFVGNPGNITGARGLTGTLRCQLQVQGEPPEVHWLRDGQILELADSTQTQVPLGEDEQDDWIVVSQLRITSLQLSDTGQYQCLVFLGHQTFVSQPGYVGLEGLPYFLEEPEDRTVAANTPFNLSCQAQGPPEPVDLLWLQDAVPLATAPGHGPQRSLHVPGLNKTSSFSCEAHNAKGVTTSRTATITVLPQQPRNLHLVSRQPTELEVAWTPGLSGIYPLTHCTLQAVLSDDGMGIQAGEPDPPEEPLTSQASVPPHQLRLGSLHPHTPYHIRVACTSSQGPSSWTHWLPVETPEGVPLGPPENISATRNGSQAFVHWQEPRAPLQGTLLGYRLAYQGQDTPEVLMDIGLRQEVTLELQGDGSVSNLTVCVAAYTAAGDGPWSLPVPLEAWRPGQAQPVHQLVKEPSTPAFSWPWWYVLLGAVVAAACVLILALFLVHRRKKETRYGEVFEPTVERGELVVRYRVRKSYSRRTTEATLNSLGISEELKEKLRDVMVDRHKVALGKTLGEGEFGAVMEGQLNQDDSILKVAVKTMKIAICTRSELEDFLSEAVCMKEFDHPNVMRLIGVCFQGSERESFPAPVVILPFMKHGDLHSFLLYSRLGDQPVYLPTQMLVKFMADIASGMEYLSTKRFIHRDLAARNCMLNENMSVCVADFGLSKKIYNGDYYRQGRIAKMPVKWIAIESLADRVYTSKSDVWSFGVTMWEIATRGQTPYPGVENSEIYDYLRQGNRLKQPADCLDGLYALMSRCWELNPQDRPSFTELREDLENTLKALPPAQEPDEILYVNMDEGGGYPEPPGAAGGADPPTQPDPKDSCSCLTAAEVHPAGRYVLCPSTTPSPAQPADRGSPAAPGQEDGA
Test: cell-based or functional assay

B1: ch_TAG_TNB1-saporin (antibody, V domains shown)
VH: QVKLQESGAELVKPGASVKLSCKASGFTFTSYYMYWVKQRPGQGLEWIGGVSPSNGGANFNEKFKTKATLTVDKSSSTAYMQLSSLTSEDSAVYYCTRFLYGPRYFDVWGQGTTVTVSS
VL: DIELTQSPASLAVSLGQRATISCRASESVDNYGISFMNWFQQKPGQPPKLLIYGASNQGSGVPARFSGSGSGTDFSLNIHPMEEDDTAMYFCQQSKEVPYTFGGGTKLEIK
modifications: Saporin toxin directly conjugated to the antibody; site and chain not stated
Question: B1 was tested. Which “IC50, Cell Titre Glo cell viability, BT549 cells” value did it give?
Answer: The value was 1240 pM.

Question: What about the “IC50, Cell Titre Glo cell viability, H1299 cells” value of the same binder?
Answer: Its value is 35.3 pM.

Question: What about the “IC50, Cell Titre Glo cell viability, Hs578T cells” value of the same binder?
Answer: The value was 529 pM.

Question: What about the “IC50, Cell Titre Glo cell viability, MDA-MB-231 cells” value of the same binder?
Answer: The value was 340 pM.
